Article PMC3789969, “The Allosteric Role of the AAA^+ Domain of ChlD Protein from the Magnesium Chelatase of Synechocystis Species PCC 6803*” (The Journal of Biological Chemistry, 2013)

Tests used:
Details in all cases: both partners purified
[1] = target: T1, His6-ChlD (K49A), Walker A mutant (Synechocystis sp. PCC 6803, UniProt P72772 1-676, K49A); experiment: pull-down; co-purification on Ni(II) chelating Sepharose through His6-ChlD; 2 μM ChlD and 2 μM ChlI, with nucleotide (methods: 5 mM ADP; legend: ATP), 15 mM MgCl2, 50 mM Tricine, 0.3 M glycerol, pH 7.9, room temperature; SDS-PAGE of the resin
T1 construct: Magnesium chelatase subunit ChlD, Synechocystis sp; PCC 6803, with K49A in the Walker A motif; Same construct as m2 with one point mutation; also called K49A mutant; source: Rosetta2(DE3) pLysS, site-directed mutant (QuikChange) of pET9a-His6ChlD, purified
T1 sequence (P72772 whole entry K49A): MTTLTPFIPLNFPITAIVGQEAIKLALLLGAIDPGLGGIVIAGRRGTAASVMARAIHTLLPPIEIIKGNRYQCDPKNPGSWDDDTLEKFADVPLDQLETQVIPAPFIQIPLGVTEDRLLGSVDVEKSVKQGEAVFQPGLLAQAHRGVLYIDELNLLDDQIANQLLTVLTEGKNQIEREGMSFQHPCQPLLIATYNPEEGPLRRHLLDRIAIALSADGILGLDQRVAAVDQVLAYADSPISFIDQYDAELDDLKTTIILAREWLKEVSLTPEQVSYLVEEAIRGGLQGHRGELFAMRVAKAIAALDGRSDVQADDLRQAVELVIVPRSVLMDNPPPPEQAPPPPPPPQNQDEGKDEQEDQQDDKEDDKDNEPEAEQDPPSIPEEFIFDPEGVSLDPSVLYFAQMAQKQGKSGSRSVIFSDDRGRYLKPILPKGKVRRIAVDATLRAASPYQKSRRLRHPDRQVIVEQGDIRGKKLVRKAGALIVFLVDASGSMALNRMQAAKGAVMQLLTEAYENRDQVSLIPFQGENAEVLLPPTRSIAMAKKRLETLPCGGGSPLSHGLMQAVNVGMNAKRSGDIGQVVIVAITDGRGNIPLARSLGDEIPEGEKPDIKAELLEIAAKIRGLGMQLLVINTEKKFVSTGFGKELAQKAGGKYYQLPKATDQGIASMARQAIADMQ

[2] = target: T2, His6-ChlD (R208A), arginine finger mutant (Synechocystis sp. PCC 6803, UniProt P72772 1-676, R208A); experiment: chelatase assembly titration (steady-state enzyme activity); apparent; ChlI titrated against 0.1 μM His6-ChlD with 0.4 μM ChlH, steady-state rate of MgDIX formation fitted to Equation 3; 50 mM MOPS/KOH, 0.3 M glycerol, 1 mM DTT, 10 mM free Mg2+, I = 0.1 with KCl, 8 μM DIX, pH 7.7, 34 °C
T2 construct: Magnesium chelatase subunit ChlD, Synechocystis sp; PCC 6803, with R208A removing the arginine finger; Same construct as m2 with one point mutation; also called R208A mutant; source: Rosetta2(DE3) pLysS, site-directed mutant (QuikChange) of pET9a-His6ChlD, purified
T2 sequence (P72772 whole entry R208A): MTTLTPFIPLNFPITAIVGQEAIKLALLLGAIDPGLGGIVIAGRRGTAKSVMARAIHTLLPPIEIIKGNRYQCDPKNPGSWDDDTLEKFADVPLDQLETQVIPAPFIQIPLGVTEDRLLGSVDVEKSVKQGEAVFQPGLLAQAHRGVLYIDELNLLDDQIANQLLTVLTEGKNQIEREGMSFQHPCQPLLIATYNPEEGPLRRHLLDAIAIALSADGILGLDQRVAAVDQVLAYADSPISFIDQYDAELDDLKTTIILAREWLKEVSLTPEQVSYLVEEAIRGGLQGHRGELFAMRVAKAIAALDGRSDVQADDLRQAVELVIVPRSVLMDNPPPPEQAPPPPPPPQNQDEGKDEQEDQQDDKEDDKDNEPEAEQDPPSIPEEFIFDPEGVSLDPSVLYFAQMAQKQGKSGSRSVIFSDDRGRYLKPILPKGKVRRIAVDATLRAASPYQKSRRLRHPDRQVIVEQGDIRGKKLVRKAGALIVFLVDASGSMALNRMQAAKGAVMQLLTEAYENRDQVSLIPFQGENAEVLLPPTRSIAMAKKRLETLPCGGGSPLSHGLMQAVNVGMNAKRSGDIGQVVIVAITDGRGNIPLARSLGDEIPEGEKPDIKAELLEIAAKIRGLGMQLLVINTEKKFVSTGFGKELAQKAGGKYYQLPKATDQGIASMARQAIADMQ

[3] = target: T3, His6-ChlD (R289A), Sensor II mutant (Synechocystis sp. PCC 6803, UniProt P72772 1-676, R289A); experiment: as above
T3 construct: Magnesium chelatase subunit ChlD, Synechocystis sp; PCC 6803, with R289A removing the Sensor II arginine; Same construct as m2 with one point mutation; also called R289A mutant; Sensor II arginine mutant; source: Rosetta2(DE3) pLysS, site-directed mutant (QuikChange) of pET9a-His6ChlD, purified
T3 sequence (P72772 whole entry R289A): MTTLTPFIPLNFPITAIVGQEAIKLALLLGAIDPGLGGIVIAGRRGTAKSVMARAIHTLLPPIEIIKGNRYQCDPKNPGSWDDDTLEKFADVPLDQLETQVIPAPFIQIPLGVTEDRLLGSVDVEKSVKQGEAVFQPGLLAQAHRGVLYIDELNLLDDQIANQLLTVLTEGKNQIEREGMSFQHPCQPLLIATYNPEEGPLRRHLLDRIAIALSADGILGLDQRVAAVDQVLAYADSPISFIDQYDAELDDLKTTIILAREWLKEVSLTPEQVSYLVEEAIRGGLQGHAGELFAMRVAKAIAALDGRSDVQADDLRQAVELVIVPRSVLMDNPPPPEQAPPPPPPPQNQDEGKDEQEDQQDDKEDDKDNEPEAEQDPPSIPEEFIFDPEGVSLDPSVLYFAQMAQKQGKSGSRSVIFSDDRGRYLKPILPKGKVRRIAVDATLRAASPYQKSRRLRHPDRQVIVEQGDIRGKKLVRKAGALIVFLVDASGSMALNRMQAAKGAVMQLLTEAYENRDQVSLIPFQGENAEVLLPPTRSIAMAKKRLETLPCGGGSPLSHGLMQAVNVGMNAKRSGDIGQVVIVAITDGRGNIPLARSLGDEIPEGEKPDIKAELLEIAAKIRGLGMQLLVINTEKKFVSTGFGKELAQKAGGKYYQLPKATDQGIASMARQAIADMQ

[4] = target: T4, His6-ChlD (E152Q), Walker B mutant (Synechocystis sp. PCC 6803, UniProt P72772 1-676, E152Q); experiment: as above
T4 construct: Magnesium chelatase subunit ChlD, Synechocystis sp; PCC 6803, with E152Q in the Walker B motif; Same construct as m2 with one point mutation; also called E152Q mutant; source: Rosetta2(DE3) pLysS, site-directed mutant (QuikChange) of pET9a-His6ChlD, purified
T4 sequence (P72772 whole entry E152Q): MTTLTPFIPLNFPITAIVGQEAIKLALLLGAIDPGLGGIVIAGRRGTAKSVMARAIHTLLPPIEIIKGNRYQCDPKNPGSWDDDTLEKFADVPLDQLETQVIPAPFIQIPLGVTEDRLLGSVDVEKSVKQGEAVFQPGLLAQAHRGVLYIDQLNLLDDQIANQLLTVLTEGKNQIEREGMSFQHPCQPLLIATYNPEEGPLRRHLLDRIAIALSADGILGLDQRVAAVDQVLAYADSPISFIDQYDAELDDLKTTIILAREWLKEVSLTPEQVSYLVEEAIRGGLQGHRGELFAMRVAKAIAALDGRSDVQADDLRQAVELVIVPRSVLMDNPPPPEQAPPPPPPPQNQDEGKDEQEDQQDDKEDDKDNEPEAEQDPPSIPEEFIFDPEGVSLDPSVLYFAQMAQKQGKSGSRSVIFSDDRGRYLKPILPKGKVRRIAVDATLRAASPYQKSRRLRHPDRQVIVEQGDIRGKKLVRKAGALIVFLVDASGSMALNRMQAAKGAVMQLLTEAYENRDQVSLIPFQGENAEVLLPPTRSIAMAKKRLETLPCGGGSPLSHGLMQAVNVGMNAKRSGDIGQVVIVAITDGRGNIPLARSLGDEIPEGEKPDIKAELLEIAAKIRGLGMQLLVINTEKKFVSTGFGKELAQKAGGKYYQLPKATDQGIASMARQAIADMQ

[5] = target: T5, His6-ChlD, wild type, of the magnesium chelatase of Synechocystis sp. PCC 6803 (Synechocystis sp. PCC 6803, UniProt P72772 1-676); experiment: as above
T5 construct: Magnesium chelatase subunit ChlD, Synechocystis sp; PCC 6803; also called wild type ChlD; wild type His6-ChlD; source: Rosetta2(DE3) pLysS, vector pET9a-His6ChlD, purified
T5 sequence (P72772 whole entry): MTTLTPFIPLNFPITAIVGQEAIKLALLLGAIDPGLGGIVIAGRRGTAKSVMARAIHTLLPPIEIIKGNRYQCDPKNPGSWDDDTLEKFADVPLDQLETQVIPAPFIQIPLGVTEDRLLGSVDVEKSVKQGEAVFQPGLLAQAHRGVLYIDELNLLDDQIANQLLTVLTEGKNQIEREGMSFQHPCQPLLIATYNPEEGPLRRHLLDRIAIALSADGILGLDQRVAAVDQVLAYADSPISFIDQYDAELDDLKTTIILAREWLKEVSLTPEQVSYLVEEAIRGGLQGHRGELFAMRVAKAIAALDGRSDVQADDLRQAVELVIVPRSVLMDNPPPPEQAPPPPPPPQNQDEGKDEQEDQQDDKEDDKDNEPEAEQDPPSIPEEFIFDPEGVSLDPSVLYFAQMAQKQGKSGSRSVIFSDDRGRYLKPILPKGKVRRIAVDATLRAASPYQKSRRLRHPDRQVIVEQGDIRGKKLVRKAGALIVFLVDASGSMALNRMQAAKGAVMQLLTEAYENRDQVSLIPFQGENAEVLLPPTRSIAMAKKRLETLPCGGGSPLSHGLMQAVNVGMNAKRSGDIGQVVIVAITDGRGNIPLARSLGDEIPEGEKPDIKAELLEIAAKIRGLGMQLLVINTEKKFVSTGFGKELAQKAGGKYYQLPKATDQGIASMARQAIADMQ

binding result [1]: binds
Kd [2]: 14 nM
nd (concentration of binding sites for ChlI) [2]: 0.2 µM
Kd [3]: 52 nM
nd (concentration of binding sites for ChlI) [3]: 0.19 µM
Kd [4]: 0.35 nM
nd (concentration of binding sites for ChlI) [4]: 0.24 µM
Kd [5]: 0.17 nM
nd (concentration of binding sites for ChlI) [5]: 0.23 µM
B1: ChlI protein of the magnesium chelatase of Synechocystis sp. PCC 6803 (natural protein, UniProt P51634 1-357, looked up)
chain: MTATLAAPSKTRRVVFPFTAIVGQDEMKLALLLNVIDPKIGGVMIMGDRGTGKSTTIRALADLLPEIEVVANDPFNSSPSDPEMMSEEVRIRVDSQEPLSIVKKKVTMVDLPLGATEDRVCGTIDIEKALSEGVKAFEPGLLAKANRGILYVDEVNLLDDHLVDVLLDSAAGGWNTVEREGISIRHPARFVLVGSGNPEEGELRPQLLDRFGMHAEIRTVREPELRVKIVEQRTEFDQNPHPFCDQYQTEQEALQAKIVNAQNLLPQVTIDYDYRVKVSEVCAELDVDGLRGDIVTNRAAKALAAFEGRTEVTVDDISRVIVLCLRHRLRKDPLESIDSGSKVEKVFKRVFGVVDEA
notes: Magnesium chelatase subunit ChlI, Synechocystis sp; PCC 6803; no tag is named for ChlI; also called wild type ChlI; source: BL21(DE3), vector pET9a-ChlI, autoinducing medium ZYM-5052, purified
